# B1: HA-tagged B55α (HA-B55α), wild type [human] / FLAG-Eya3 (human), wild type [human] (parent complex)
# chain 1: MAGAGGGNDIQWCFSQVKGAVDDDVAEADIISTVEFNHSGELLATGDKGGRVVIFQQEQENKIQSHSRGEYNVYSTFQSHEPEFDYLKSLEIEEKINKIRWLPQKNAAQFLLSTNDKTIKLWKISERDKRPEGYNLKEEDGRYRDPTTVTTLRVPVFRPMDLMVEASPRRIFANAHTYHINSISINSDYETYLSADDLRINLWHLEITDRSFNIVDIKPANMEELTEVITAAEFHPNSCNTFVYSSSKGTIRLCDMRASALCDRHSKLFEEPEDPSNRSFFSEIISSISDVKFSHSGRYMMTRDYLSVKIWDLNMENRPVETYQVHEYLRSKLCSLYENDCIFDKFECCWNGSDSVVMTGSYNNFFRMFDRNTKRDITLEASRENNKPRTVLKPRKVCASGKRKKDEISVDSLDFNKKILHTAWHPKENIIAVATTNNLYIFQDKVN
# chain 2: MEEEQDLPEQPVKKAKMQESGEQTISQVSNPDVSDQKPETSSLASNLPMSEEIMTCTDYIPRSSNDYTSQMYSAKPYAHILSVPVSETAYPGQTQYQTLQQTQPYAVYPQATQTYGLPPFGALWPGMKPESGLIQTPSPSQHSVLTCTTGLTTSQPSPAHYSYPIQASSTNASLISTSSTIANIPAAAVASISNQDYPTYTILGQNQYQACYPSSSFGVTGQTNSDAESTTLAATTYQSEKPSVMAPAPAAQRLSSGDPSTSPSLSQTTPSKDTDDQSRKNMTSKNRGKRKADATSSQDSELERVFLWDLDETIIIFHSLLTGSYAQKYGKDPTVVIGSGLTMEEMIFEVADTHLFFNDLEECDQVHVEDVASDDNGQDLSNYSFSTDGFSGSGGSGSHGSSVGVQGGVDWMRKLAFRYRKVREIYDKHKSNVGGLLSPQRKEALQRLRAEIEVLTDSWLGTALKSLLLIQSRKNCVNVLITTTQLVPALAKVLLYGLGEIFPIENIYSATKIGKESCFERIVSRFGKKVTYVVIGDGRDEEIAAKQHNMPFWRITNHGDLVSLHQALELDFL
# Variants of: B1
# Assay: FLAG co-IP followed by Western blot, band quantification; cotransfected HEK cells; three biological replicates; parent: 1; read off a plot
row,ratio to parent,Variant
1,~0.28,"chain 1 Y178A, chain 1 H179A"
2,~0.36,chain 1 K345E
3,~1.2,chain 1 E27R
4,~0.4,"chain 1 E93A, chain 1 E94A, chain 1 K95A"
5,~0.58,chain 1 D197K
6,~1.1,chain 1 K48E
